# Laboratory results from the RNAGym collection of RNA variant scans (doi:10.1093/molbev/msab373).
# B1: Azoarcus group I ribozyme (parent)
# chain: GUGCCUUGCGCCGGGAAACCACGCAAGGGAUGGUGUCAAAUUCGGCGAAACCUAAGCGCCCGCCCGGGCGUAUGGCAACGCCGAGCCAAGCUUCGGCGCCUGCGCCGAUGAAGGUGUAGAGACUAGACGGCACCCACCUAAGGCAAACGCUAUGGUGAAGGCAUAGUCCAGGGAGUGGCGAAAGUCACACAAACCGG
# Variants of: B1
# Experiment: reverse-splicing fitness (ratio to wild type); higher = more active; in vitro selection; Mg2+ level not given
# Summary of the method: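 An in vitro group I ribozyme library with randomized positions was T7-transcribed and gel-purified. In triplicate, 10 pmol RNA in EPPS pH 7.5 was reacted with 50 pmoles of a 30-nt RNA substrate for 1 h at 37 °C across several added MgCl2 levels (1–48 mM), then stopped with EDTA. Products were reverse transcribed from a substrate-complementary primer, PCR-amplified and sequenced (HiSeq 4000). Fitness is a variant's read proportion after selection over that before, normalised to wild type.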
row,Variant,reverse-splicing fitness
1,C82U A111C A120C A145U C150A C169G U176C,0.015
2,C82U A111C A120C A145U C150A C169G U176A,0.0132
3,C82U A111C A120C A145U C150A C169G U176G,0.00587
4,C82U A111C A120C A145C C150A C169U U176G,0.00596
5,C82U A111C A120C A145C C150A C169U U176A,0.0156
6,C82U A111C A120C A145C C150A C169U U176C,0.0117
7,C82U A111C A120C A145U C150U U176C,0.0144
8,C82U A111C A120C A145U C150U U176G,0.00604
9,C82U A111C A120C A145U C150U U176A,0.0105
10,C82G A145U C150U C169G U176C,0.0131
11,C82G A145U C150U C169G U176A,0.0117
12,C82G A145U C150U C169G U176G,0.00545
13,C82G C150A U176G,0.0188
14,C82G C150A U176C,0.0447
15,C82G C150A U176A,0.0422
16,C82G C150U C169G U176C,0.0199
17,C82G C150U C169G U176G,0.00501
18,C82G C150U C169G U176A,0.0154
19,C82U A111C A120C A145C C169G,0.00865
20,C82U A111C A120C A145C C169A,0.00667
21,C82U A111C A120C A145C C169U,0.0105

row,Variant,reverse-splicing fitness
1,C82U A111C A120C A145G C150G C169A,0.0079
2,C82U A111C A120C A145G C150G C169G,0.00708
3,C82U A111C A120C A145G C150G C169U,0.00816
4,C82G C150U U176A,0.181
5,C82G C150U U176C,0.206
6,C82G C150U U176G,0.0728
7,C82U A111C A120C A145G C169U U176C,0.0159
8,C82U A111C A120C A145G C169U U176G,0.00573
9,C82U A111C A120C A145G C169U U176A,0.0159
10,C82U A111C A120C A145C C150U C169U U176A,0.0145
11,C82U A111C A120C A145C C150U C169U U176C,0.0122
12,C82U A111C A120C A145C C150U C169U U176G,0.0068
13,C82U A111C A120C A145U C169A,0.00732
14,C82U A111C A120C A145U C169U,0.0103
15,C82U A111C A120C A145U C169G,0.00753
16,C82G C150U C169U U176A,0.0142
17,C82G C150U C169U U176C,0.0159
18,C82G C150U C169U U176G,0.00459
19,C82G A145U C169U U176A,0.0116
20,C82G A145U C169U U176G,0.00368
21,C82G A145U C169U U176C,0.0136

row,Variant,reverse-splicing fitness
1,C82U A111C A120C A145C C169A U176G,0.00387
2,C82U A111C A120C A145C C169A U176C,0.00743
3,C82U A111C A120C A145C C169A U176A,0.0111
4,C82U A111C A120C C150G C169G U176C,0.0068
5,C82U A111C A120C C150G C169G U176G,0.00547
6,C82U A111C A120C C150G C169G U176A,0.00777
7,C82U A111C A120C A145G C150U C169U U176A,0.0156
8,C82U A111C A120C A145G C150U C169U U176C,0.0139
9,C82U A111C A120C A145G C150U C169U U176G,0.00546
10,C82U A111C A120C A145C C150U,0.0104
11,C82U A111C A120C A145C C150G,0.00813
12,C82U A111C A120C A145C C150A,0.0072
13,C82U A111C A120C A145U C150G U176G,0.00321
14,C82U A111C A120C A145U C150G U176A,0.00578
15,C82U A111C A120C A145U C150G U176C,0.00923
16,C82U A111C A120C A145G C150U C169G,0.00807
17,C82U A111C A120C A145G C150U C169U,0.012
18,C82U A111C A120C A145G C150U C169A,0.00905
19,C82U A111C A120C C150G U176A,0.00528
20,C82G A145U C169A U176G,0.00461
21,C82G A145U C169A U176A,0.00756

row,Variant,reverse-splicing fitness
1,C82G A145U C169A U176C,0.00844
2,C82U A111C A120C A145U C150A C169U U176C,0.014
3,C82U A111C A120C A145U C150A C169U U176A,0.0184
4,C82U A111C A120C A145U C150A C169U U176G,0.00706
5,C82U A111C A120C A145U C150G C169A,0.00863
6,C82U A111C A120C A145U C150G C169G,0.00628
7,C82U A111C A120C A145U C150G C169U,0.00844
8,C82U A111C A120C A145C C169U U176G,0.00426
9,C82U A111C A120C A145C C169U U176A,0.0162
10,C82U A111C A120C A145C C169U U176C,0.0147
11,C82U A111C A120C A145C C150G C169G,0.00681
12,C82U A111C A120C A145C C150G C169U,0.00884
13,C82U A111C A120C A145C C150G C169A,0.00861
14,C82U A111C A120C A145U C150A,0.0082
15,C82U A111C A120C A145U C150G,0.00723
16,C82U A111C A120C A145U C150U,0.0199
17,C82U A111C A120C,0.0271
18,C82G C150U C169A U176A,0.0176
19,C82G C150U C169A U176G,0.00526
20,C82G C150U C169A U176C,0.0132
